The source of these data is CN115785274A (DONGGUAN PENGZHI BIOTECHNOLOGY CO LTD, dated 2023).

The experiment addresses T1, PG I蛋白(fitzgerald，30R-AP038) (UniProt P0DJD8 16-388).
T1 construct: Bought antigen; Pepsinogen I is a group of isozymogens (human genes PGA3, PGA4, PGA5); also called 胃蛋白酶原I; HPG I
The experiment can be described thus: BLI, antibody captured on AMC sensor, PG I protein in a dilution series in PBST.

T1 sequence (P0DJD8 16-388): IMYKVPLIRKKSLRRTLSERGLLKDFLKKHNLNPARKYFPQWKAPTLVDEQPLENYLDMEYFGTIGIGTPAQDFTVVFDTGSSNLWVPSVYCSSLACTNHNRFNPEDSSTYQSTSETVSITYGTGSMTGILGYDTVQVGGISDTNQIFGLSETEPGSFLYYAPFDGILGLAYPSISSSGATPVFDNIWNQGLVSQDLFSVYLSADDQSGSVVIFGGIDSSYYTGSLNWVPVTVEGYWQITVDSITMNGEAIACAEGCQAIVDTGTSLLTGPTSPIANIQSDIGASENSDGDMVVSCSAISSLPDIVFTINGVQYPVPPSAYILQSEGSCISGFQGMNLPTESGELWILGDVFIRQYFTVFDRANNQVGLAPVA

The molecule 对照抗体 (antibody) registered a dissociation constant Kd of 0.271 nM, a koff of 0.000529 s⁻¹ and a kon of 1.95e+06 M⁻¹ s⁻¹.

B1: Anti-HPG I 13A5单克隆抗体 (antibody, V domains shown)
VH: QVQLQQSGPELVRPGVSVKISCKGSGYTFTDHPMHWVKQSHAKSLEWIGVISTFSGHRNYNQKFKGKATMTVDKSSTTAYMELDRLTSEDSAIYYCARGDKSIYYGSYLSWGQGTLITVSA
VL: QIVLTQSPAIMSASPGEKVTMTCSASSSVSYMYWYQQKSGTSPKRWIYDTSKLTSGVPARFSGSGSGTSYSLTISSMETEDAATYFCQQWSSSPLTFGAGTKLELK
Molecule B1 registered a Kd of 0.0275 nM, a koff of 0.000536 s⁻¹ and a kon of 1.95e+07 M⁻¹ s⁻¹.
